Article PMC4072508, “Genome-Wide Prediction and Validation of Peptides That Bind Human Prosurvival Bcl-2 Proteins” (PLoS Computational Biology, 2014)

T1: Mcl-1, Q07820
T1 chain: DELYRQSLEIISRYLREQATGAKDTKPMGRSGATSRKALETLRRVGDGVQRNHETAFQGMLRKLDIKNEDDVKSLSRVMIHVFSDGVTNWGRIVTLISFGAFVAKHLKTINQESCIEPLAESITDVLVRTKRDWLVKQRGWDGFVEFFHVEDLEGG


Molecular target: T1, Mcl-1, Q07820
Test: peptide SPOT array, c-Myc-tagged receptor at 1 uM or 100 nM, anti-c-Myc-Cy3

Row | Binder | SPOT signal as a fraction of Bim BH3's signal on the same receptor and array
1 | DVTHSKAVEALKEAGSIVRLYVKRRK [DLG1] | 0.13
2 | EPTMKTLSDDLDEAAKEFQEKHKKEV [NAT10] | 0.01
3 | FSDCLMVVQFLRNFGKVLGFDVNIDV [BAZ2B] | 0.02
4 | TESGSFVANLLKDLGLEIGELAVRGA [PCDHB2] | 0.02
5 | SGEFARICRDDSHIGDAVVISCAKDG [PCNA] | 0.01
6 | SKSKIHAARSLSEIAIDLTETGTLKT [FRMD4A] | 0.02
7 | DRFEGYCIDLLRELSTILGFTYEIRL [GRIK2] | 0.02
8 | LFKAADSSRSIYEVAMQLLQILEPKM [FRYL] | 0.02
9 | DFITALPARGLDHIAENILSYLDAKS [BTRC] | 0.02
10 | VPARAPAVDLLEEAADLLVVHLDFRA [PEX26] | 0.02
11 | KRAAEMMASLLKDLAEIGIAVGNNDV [KIF5B] | 0.02
12 | TGVNGEISYSLFQASDEISKTFKVDF [PCDHB8] | 0.02
13 | KGAKSESAESLRQWAQELEENLNELT [APOL4] | 0.01
14 | PFNKEELSAILKFGAEELFKEPEGEE [CHD1] | 0.02
15 | HPEHFVCAFCLTQLSKGIFREQNDKT [LPXN] | 0.03
16 | LWAAQRYGRELRRMSDEFVDSFKKGL [BAD] | 0.53

Row | Binder | SPOT signal as a fraction of Bim BH3's signal on the same receptor and array
17 | PFNKEELTAILKFGAEDLFKELEGEE [CHD2] | 0.01
18 | SPVPPVVHLTLRQAGDDFSRRYRRDF [BCL2] | 0.26
19 | AEVELEYSRGLEKLAERFSSRGGRLG [ARHGAP4] | 0.02
20 | DPLNDNVATLLHQSSDRFVAELWKDV [MYH10] | 0.02
21 | AIDAIFLTTTLQNISEDVLAVMDNKN [CKAP5] | 0.02
22 | LGKRTGTVQVLKRSGRELIENSRDDT [MACF1] | 0.05
23 | GKDHPAVAATLNNLAVLYGKRGKYKE [KLC1] | 0.22
24 | DRYEGFCVDMLKELAEILRFNYKIRL [GRIK4] | 0.03
25 | GSKSDPLCVLLQDVGGGSWAELGRTE [CPNE1] | 0.02
26 | KYFLQNFSCFLEETADEWAEKMPKGP [EFCAB6] | 0.03
27 | ANLEISYAKGLQKLASKLSKALQNTR [NOSTRIN] | 0.22
28 | EEVFQSLSKILDVASLEVLNEVNRRS [GCN1L1] | 0.14
29 | IFNGSNWIMLIYKGGDEYDNHCGKEQ [M6PR] | 0.02
30 | EAGNMAAVGRLQAVSRRLFAELENER [KIAA1751] | 0.02
31 | QVQNIKLAGSLQHVAEKLCRELYNKA [CLEC1A] | 0.11
32 | ERMKGTFCIALEKFSKAIYKYVNHWR [HEATR7B2] | 0.37

Second part, the binder after the results:

Row | SPOT signal as a fraction of Bim BH3's signal on the same receptor and array | Binder
33 | 0.85 | AELEVECATQLRRFGDKLNFRQKLLN [PMAIP1]
34 | 0.02 | QPHTGKLCWFLDEAAARLLTVPFEKH [PGLS]
35 | 0.24 | LPGRPGLAALLGRLSDRLGRNRDRQR [PGS1]
36 | 0.11 | AAPEGDWARLLEQMGALAVRGSRRER [ZBED3]
37 | 0.04 | SVLRKALHDSLHDCSHWFYTRWKDWE [ZRANB1]
38 | 0.02 | QATHDQAVQALKRAGKEVLLEVKFIR [SNTB2]
39 | 0.02 | IVIDCSAIQFLDTAGIHTLKEVRRDY [SLC26A2]
40 | 0.12 | QISTRLPSDYIYGIGEQVHKRFRHDL [SI]
41 | 0.02 | FDRAVVLSHYIHNLSSEMFSEFDKRY [PRL]
42 | 0.02 | LDDSVEVIKALKNGGAHLDFRAKDGM [SHANK2]
43 | 0.07 | AEIELEYSRSLEKLAERFSSKIRSSR [SRGAP3]
44 | 0.02 | LELVSGSIGVLKNMSQRIGGELEEQA [STX6]
45 | 0.01 | TRELQELARKLQELLDASENLLTENT [TXNDC11]
46 | 0.01 | PASTDAVSALLEQTAVELEKRQEGRS [WWC1]
47 | 0.06 | AKYLSGIAHFLEKLAFSSTARFDSKD [PMPCA]
48 | 0.11 | TWEIECTSEMLKKLSSKVMTKVIKKK [TRANK1]
49 | 0.01 | NATHEEVVHLLRNALDEVTITVEYLR [SNTG2]
50 | 0.02 | RGPEAPGGRALRDAAENLFQELQEHF [PRR20C]
51 | 0.02 | CRREPGLAETLRDAAHLGLLECQFQF [WNT9B]
52 | 0.01 | SSEEITVAGNLEKSAERSTQGLKFHL [RSC1A1]
53 | 0.02 | AKTSQTVATFLDELAQKLKPLGEQER [THOP1]
54 | 0.15 | RTVESEAASYLDQISRYYITRAKLVS [PSME3]
